The values that follow come from patent publication US20140271661A1 (published 2014).

As usually defined, the Kd is the equilibrium constant for the complex coming apart. Read a low Kd as higher affinity.

The labels stand for the following.
B1: TPP-2019 hIgG (antibody, V domains shown)
VH: EVQLLESGGGLVQPGGSLRLSCAASGFTFSRYAMYWVRQAPGKGLEWVSRISPSGGKTHYADSVKGRFTISRDNSKNTLYLQMNSLRAEDTAVYYCARLSQTGYYPHYHYYGMDVWGQGTTVTVSS
VL: DIQMTQSPATLSLSPGERATLSCRASQRVSSSYLTWYQQKPGQAPRLLIYGASSRATGIPDRFSGSGSGTDFTLTISRLEPEDFAVYYCQQYDSTPPLTFGGGTKVEIKR
B2: TPP2009 hIgG1 (antibody, V domains shown)
VH: EVQLLESGGGLVQPGGSLRLSCAASGFTFSAYRMGWVRQAPGKGLEWVSRIYSSGGRTRYADSVKGRFTISRDNSKNTLYLQMNSLRAEDTAVYYCAREKASDLSGSFSEALDYWGQGTLVTVSS
VL: AQSVLTQDPAVSVALGQTVRITCQGDSLRSYYASWYQQKPGQAPVLVIYGKNNRPSGIPDRFSGSSSGNTASLTITGAQAEDEADYYCNSRDSSGNHLVFGGGTKLTVLG
B3: TPP-2016 hIgG (antibody, V domains shown)
VH: EVQLLESGGGLVQPGGSLRLSCAASGFTFSKYRMDWVRQAPGKGLEWVSRIGPSGGKTTYADSVKGRFTISRDNSKNTLYLQMNSLRAEDTAVYYCAREKTSDLSGSYSEALDYWGQGTLVTVSS
VL: DIQMTQSPATLSVSPGERATLSCRASQNINRNLAWYQQKPGRAPRLLIHTASTRAPGVPVRITGSGSGTEFTLTISSLEPEDFAVYFCQQYASPPRTFGQGTKVEIKR

The target in this assay is human antithrombin β complexed with heparin (human ATβH) (human, UniProt P01008 33-464, lacks glycosylation at Asn135 (β glyco-isoform); complexed with heparin). Briefly: Biacore.
Chain of human antithrombin β complexed with heparin (human ATβH) (P01008 33-464, one chain of several): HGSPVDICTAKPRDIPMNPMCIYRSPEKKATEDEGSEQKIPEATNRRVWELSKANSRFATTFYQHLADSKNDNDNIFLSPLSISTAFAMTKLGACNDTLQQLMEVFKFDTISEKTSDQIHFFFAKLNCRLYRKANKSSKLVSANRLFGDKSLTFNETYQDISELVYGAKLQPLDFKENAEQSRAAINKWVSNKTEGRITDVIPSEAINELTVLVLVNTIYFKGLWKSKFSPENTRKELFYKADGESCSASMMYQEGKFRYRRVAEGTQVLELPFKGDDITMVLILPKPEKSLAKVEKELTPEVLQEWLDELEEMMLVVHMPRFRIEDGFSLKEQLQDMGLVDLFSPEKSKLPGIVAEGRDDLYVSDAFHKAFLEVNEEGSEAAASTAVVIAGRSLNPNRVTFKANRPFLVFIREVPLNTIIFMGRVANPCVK
The molecule B1 yielded a Kd of 17.2 nM.

With B2, the Kd is 11.9 nM.

B3 came in with a Kd of 18.9 nM.
